The target in this test is full length human PSGL-1 (SEQ ID NO: 3) expressed on heparan sulfate-mutant CHO cells (human) (UniProt Q14242). The test is described as follows: blocking of VISTA-Fc binding to CHO-PSGL-1 cells (the blocked ligand is VISTA-Fc); cells pre-incubated with antibody and read by flow cytometry or HTRF. (In flow cytometry, cells or beads pass a laser one at a time.)
Chain of full length human PSGL-1 (SEQ ID NO: 3) expressed on heparan sulfate-mutant CHO cells (human) (Q14242 42-412 limits assumed, change not shown): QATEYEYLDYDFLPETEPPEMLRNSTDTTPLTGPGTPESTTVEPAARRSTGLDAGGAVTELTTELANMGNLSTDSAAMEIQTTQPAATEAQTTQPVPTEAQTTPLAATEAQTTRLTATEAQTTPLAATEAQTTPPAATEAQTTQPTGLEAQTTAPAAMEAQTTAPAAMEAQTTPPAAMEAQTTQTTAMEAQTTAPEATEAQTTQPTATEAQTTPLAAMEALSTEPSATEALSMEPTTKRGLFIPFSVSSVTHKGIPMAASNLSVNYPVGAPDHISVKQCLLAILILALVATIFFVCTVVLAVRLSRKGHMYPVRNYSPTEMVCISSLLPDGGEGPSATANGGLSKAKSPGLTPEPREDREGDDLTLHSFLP

Consider “anti-PSGL-1 antibody KPL-1 (BD Biosciences or Biolegend)”, for which the IC50 (read off the curve) was found to be 0.06 µg/mL.

These data come from patent publication US20250129166A1.
